Measured values published in patent US20180023049A1, “SYNTHETIC PEPTIDE HYDROGEL FORMULATIONS FOR USE AS EXTRACELLULAR MATRIX” (3-D MATRIX, LTD., priority 2015, published 2018).

What was measured:
[1] = pH, pKa and isoelectronic point of PuraMatrix; type: physicochemical; details: aqueous 1% PuraMatrix solution, in this study
Excerpt: Isoelectronic point (pI) is the pH at which a particular molecule carries no net electrical charge. PuraMarix® has four arginine and four aspartic acid. […] That means that there is no net electrical charge between around pH 3.9 and around pH 11.5, where the solubility of PuraMatrix® becomes low. Usually, aqueous PuraMatrix® solution has its pH level at 2.0-2.5. […] Although isotonic PuraMatrix® formulated in 10% sucrose solution has been used for cell culture experiments as shown in the current PuraMatrix® cell culture protocol, the pH of PuraMatrix® with 10% sucrose was also 2.2.

[2] = cited from earlier work

## RADARADARADARADA [PuraMatrix®]
[1]
  pH: 2.2
[2]; aqueous PuraMatrix solution, usually
  pH level: 2.0-2.5
[2]; between around pH 3.9 and around pH 11.5
  solubility: low
[2]
  pKa of aspartic acid in PuraMatrix: 3.9
